Several values for one entry are separate records, joined by “and”; a condition that tells them apart may be missing. Equal entries are not always repeated. Entries after “also recorded” stand apart in the source; their conditions may differ. Where two headings read alike, the source gives them in different places.

Data on 5 molecules can be found in patent publication US10065989B2, “Molecular sleds and uses thereof” (The Broad Institute, Inc., priority 2012, dated 2018).

The target of data set [1] is dsDNA. The data set is classed as binding.
The test system of a further data set is lambda DNA. Description: Single-molecule DNA sliding assay on flow-stretched DNA (TIRF microscopy). Also noted: species or system bacteriophage lambda; one-dimensional diffusion constant: unit not given here. The settings on record: for One-Dimensional Diffusion Constant (mean D1 ± SEM): lambda DNA, low salt 2-6 mM NaCl. From the text:
To determine whether AVP-pVIc complexes slide on DNA, Applicants used single-molecule fluorescence microscopy (FIG. 10C) with flow-stretched DNA, (FIG. 10D,E) (Kabata, H. et al. Visualization of single molecules of RNA polymerase sliding along DNA. Science 262, 1561-3 (1993); Harada, Y. et al. Single-molecule imaging of RNA polymerase-DNA interactions in real time. Biophys. J. 76, 709-715 (1999) and Blainey, P. C., van Oijen, A. M., Banerjee, A., Verdine, G. L. & Xie, X. S. A base-excision DNA-repair protein finds intrahelical lesion bases by fast sliding in contact with DNA. Proc Natl Acad Sci USA 103, 5752-7 (2006)). […] Biochemistry 40, 13237-13245 (2001)), and furthermore to diffuse rapidly over tens of thousands of base pairs before dissociating from the DNA. For example, the molecule whose motion is shown in the raw image data in FIG. 12A traveled more than 20,000 base pairs during a 0.9 sec binding event. Despite the optical resolution limit imposed by diffraction, the centroid position of each signal in each frame was determined with 11 nm spatial precision at 3.5 ms time resolution (Gelles, J., Schnapp, B. J. & Sheetz, M. P. Tracking kinesin-driven movements with nanometer-scale precision. Nature 331, 450-3 (1988) and Thompson, R. E., Larson, D. R. & Webb, W. W. Precise nanometer localization analysis for individual fluorescent probes. Biophys J 82, 2775-83 (2002)), FIG. 12B.
Flow cells containing bacteriophage lambda DNA immobilized at one end were constructed as described previously (Blainey, P. C., van Oijen, A. M., Banerjee, A., Verdine, G. L. & Xie, X. S. A base-excision DNA-repair protein finds intrahelical lesion bases by fast sliding in contact with DNA. Proc Natl Acad Sci USA 103, 5752-7 (2006)). Labeled samples of AVP-pVIc complexes were infused at concentrations of 1-2 nM at rates of 20-50 mL/hour. Flow rates were chosen to drive the longitudinal DNA fluctuation faster than the imaging frame rate (Blainey, P. C., van Oijen, A. M., Banerjee, A., Verdine, G. L. & Xie, X. S. A base-excision DNA-repair protein finds intrahelical lesion bases by fast sliding in contact with DNA. Proc Natl Acad Sci USA 103, 5752-7 (2006)). The assay buffers consisted of 10 mM MES (pH 6.5), 2-25 mM NaCl, 50 μM EDTA, 20 mM ethanol, 5 percent glycerol, and, where indicated in the text, reducing agent (DTT and mercaptoethanol gave equivalent results). “Low salt” measurements were conducted with 2-6 mM NaCl; “high salt” measurements were conducted with 20-25 mM NaCl.
Due to the speed and duration of sliding by AVP-pVIc complexes, these events were readily identifiable manually. All AVP-pVIc complex DNA-binding events noted were included in the analyses. Once events had been identified, signals were tracked using Gaussian centroid determination in the Matlab environment. Molecular trajectories were analyzed in Matlab by methods similar to those previously published (Blainey, P. C., van Oijen, A. M., Banerjee, A., Verdine, G. L. & Xie, X. S. A base-excision DNA-repair protein finds intrahelical lesion bases by fast sliding in contact with DNA. Proc Natl Acad Sci USA 103, 5752-7 (2006)).
A question is does pVIc by itself slide on DNA. To address this possibility, Applicants performed a sliding assay (Blainey et al., 2012, Activated Adenovirus Proteinase Slides Along Viral DNA Via One-Dimensional Diffusion to Locate and Process its Substrate and Blainey et al., 2009, Nonspecifically bound proteins spin while diffusing along DNA. Nat Struct Mol Biol 16, 1224-1229 and Blainey et al., 2006, A base-excision DNA-repair protein finds intrahelical lesion bases by fast sliding in contact with DNA. Proc Natl Acad Sci USA 103, 5752-5757) using pVIc labeled with Cy3B at Cys10′. […] The sliding assay, based upon total internal reflection fluorescence microscopy, used phage λ DNA molecules (48,502 base pairs) attached at one end to a glass cover slip surface by a biotin-streptavidin linkage. The area of the cover slip with DNA was placed within a flow cell. […]

Data set [2] concerns the target T1, AVP (Human adenovirus C serotype 2, UniProt P03252). The settings on record: cited from earlier work.
Data set [3] has as its target dsDNA. Particulars: 12-mer dsDNA, pH 7; McGrath et al. 2001; read-out: KD(app.); cited from earlier work.
Data set [4] deals with virion precursor proteins in heat-disrupted Ad2 ts-1 virions. Put plainly: Processing of virion precursor proteins in heat-disrupted ts-1 virus. It is filed as biochemical.
The target in data set [5] is T2, Ad2 hexon (human adenovirus serotype 2 (Ad2), UniProt P03277 2-968).
T2 construct: also called hexon trimer; major capsid protein hexon
T2 sequence (P03277 2-968 limits assumed): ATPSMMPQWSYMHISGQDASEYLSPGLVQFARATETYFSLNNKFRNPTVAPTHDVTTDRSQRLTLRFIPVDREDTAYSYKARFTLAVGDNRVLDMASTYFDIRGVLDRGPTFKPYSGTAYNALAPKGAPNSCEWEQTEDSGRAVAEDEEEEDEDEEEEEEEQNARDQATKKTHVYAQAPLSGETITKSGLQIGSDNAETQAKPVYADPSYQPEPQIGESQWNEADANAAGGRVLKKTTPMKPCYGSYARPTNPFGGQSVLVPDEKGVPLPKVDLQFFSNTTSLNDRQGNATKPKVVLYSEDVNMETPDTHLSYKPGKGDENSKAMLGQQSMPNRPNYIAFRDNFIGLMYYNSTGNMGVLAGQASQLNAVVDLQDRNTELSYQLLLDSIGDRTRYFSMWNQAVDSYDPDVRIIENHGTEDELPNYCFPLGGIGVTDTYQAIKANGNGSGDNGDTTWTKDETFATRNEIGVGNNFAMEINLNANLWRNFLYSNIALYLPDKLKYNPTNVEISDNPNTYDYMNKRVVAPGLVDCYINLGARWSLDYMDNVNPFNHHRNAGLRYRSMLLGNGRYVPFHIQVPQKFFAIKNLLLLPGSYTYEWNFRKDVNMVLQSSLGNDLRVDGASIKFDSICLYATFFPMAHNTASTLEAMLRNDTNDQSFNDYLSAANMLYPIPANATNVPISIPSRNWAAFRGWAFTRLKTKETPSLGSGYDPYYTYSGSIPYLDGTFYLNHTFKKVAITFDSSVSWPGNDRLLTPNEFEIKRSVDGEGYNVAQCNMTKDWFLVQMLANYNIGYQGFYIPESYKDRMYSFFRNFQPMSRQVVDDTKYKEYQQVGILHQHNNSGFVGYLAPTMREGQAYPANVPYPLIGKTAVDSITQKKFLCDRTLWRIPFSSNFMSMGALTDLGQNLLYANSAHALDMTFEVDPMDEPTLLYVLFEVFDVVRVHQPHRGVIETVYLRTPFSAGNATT
Description: summary sentence of Example 1; fluorescence titration of Cy3B-pVI with hexon.

The target in data set [6] is T1, AVP.
Description: Assays contained 3.38 μM pVI, 6.54 μM AVP and either 3.38 μM 36 bp dsDNA or no DNA. After the indicated time intervals, aliquots were removed and assayed for enzymatic activity. 100% activity is the enzyme activity of 3.38 μM AVP-pVIc complexes bound to DNA. (∘) plus DNA, (∇) minus DNA. […] After 30 min. at 21° C., the amount of AVP-pVIc formed was assayed. (C) SDS-PAGE (15% polyacrylamide gel) analysis of the reactions in (B) except that the concentrations of pVI, AVP and DNA were 26-fold higher. The DNA concentration in the reactions fractionated on the gel increased from left to right. In B and C, parentheses including the same number indicates the ratio of protein to DNA in B and C is the same.
Another question is if DNA is required for the activation of AVP by pVI. Applicants repeated the experiment but in the presence of dsDNA.
To see if both enzyme (AVP) and substrate (pVI) must be on the same molecule of DNA for activation to occur or whether they can interact when bound to different DNA molecules, Applicants incubated increasing concentrations of DNA with a mixture of AVP and pVI, each at a concentration such that both should bind to DNA at any DNA concentration. And then Applicants assayed for enzyme activation (FIG. 6B).
A short description of data set [7]: Detergent requirement for solubility, dynamic light scattering. It is filed as physicochemical. The source says: Briefly, the gene for pVI and an expressible gene of VI were synthesized by PCR and inserted into expression vectors. The vectors for pVI and VI were used to transform Escherichia coli BL21 (DE3) Codon Plus cells. Recombinant proteins were expressed in autoinduction media (Studier, F. W. (2005) Protein Expr. Purif. 41, 207-234). Purification of pVI and VI was accomplished by cation-exchange and size exclusion chromatography. The proteins were about 99% pure. pVI and VI required a detergent to keep them in solution. Below a concentration of DDM of 0.0125%, the proteins were insoluble, as determined by dynamic light scattering.

Data set [8] addresses T2, Ad2 hexon. Put plainly: fluorescence quenching; 1 nM Cy3B-pVI titrated with hexon (monomer concentrations), 20 mM Hepes pH 7, 150 mM NaCl.
Data set [9] has as its target T2, Ad2 hexon. Put plainly: fluorescence anisotropy under tight binding conditions; 20 nM Cy3B-pVI titrated with hexon.

T1 sequence (P03252 whole entry): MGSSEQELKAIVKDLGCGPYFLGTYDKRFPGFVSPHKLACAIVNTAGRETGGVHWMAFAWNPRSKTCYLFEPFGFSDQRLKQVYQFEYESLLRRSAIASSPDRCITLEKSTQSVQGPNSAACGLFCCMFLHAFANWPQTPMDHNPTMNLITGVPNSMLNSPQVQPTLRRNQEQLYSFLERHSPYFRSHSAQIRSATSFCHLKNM

As to “SIVHRKCF [8-Actin-C, 8-amino acid peptide from the C-terminus of β-actin]”, the Kd on dsDNA [1] (12-mer dsDNA, pH 7, Cy3B label on peptide, read-out: Kd(app.)) was 5 ± 0.78 nM. Also, the “One-Dimensional Diffusion Constant (mean D1 ± SEM)” value in the data set with lambda DNA was 5.45 (bp)^2/s × 10^−6.
Consider “SGPSIVHRKCF [11-Actin-C, last 11 amino acids of β-actin]”, for which the “One-Dimensional Diffusion Constant (mean D1 ± SEM)” value in the data set with lambda DNA is 6.40 (bp)^2/s × 10^−6.
As for “AVP: adenovirus proteinase, a 23 kDa cysteine proteinase”, the “increase of relative kcat/Km of AVP” value with AVP [2] (in the presence of DNA) was 110 fold; with AVP [2] (in the presence of pVIc) it was 1130 fold. Also, in the data set with lambda DNA, the “sliding along DNA (in words)” value is on record as “does not slide effectively along DNA”. The Kd on dsDNA [3] is 63 nM and 63.1 nM. The “processing of precursor proteins after DNase treatment” value in data set [4] (heat disrupted ts-1 virus incubated with DNase, 2 or 24 hours) is on record as “no processing of pVI or the other precursor proteins was observed”. Moreover, the “time within which all pVI was processed” value in data set [4] (heat disrupted ts-1 virus, DNA present) is at most 24 hours.
Turning to “SFRRCGLRQVK [Random peptide, reference compound]”, on AVP [2] (up to a concentration of 60 M, Brown and Mangel 2004), the “cofactor activity in stimulating AVP” value was “did not act like a cofactor in stimulating AVP”. Further, at dsDNA [1] (12-mer dsDNA, pH 8, peptide labeled at Cys5′ with Cy3B, read-out: Kd(app.)), the Kd was found to be 646 ± 75 nM. Moreover, the “sliding along DNA (in words)” value is given as “No Diffusion” in the data set with lambda DNA and “No one-dimensional diffusion of the peptide was observed; also recorded: does not slide along the DNA” with lambda DNA (listed as SFRRCGLRQVK).

B1: precursor to adenovirus protein VI, pVI (other)
chain: MEDINFASLAPRHGSRPFMGNWQDIGTSNMSGGAFSWGSLWSGIKNFGSTIKNYGSKAWNSSTGQMLRDKLKEQNFQQKVVDGLASGISGVVDLANQAVQNKINSKLDPRPPVEEPPPAVETVSPEGRGEKRPRPDREETLVTQIDEPPSYEEALKQGLPTTRPIAPMATGVLGQHTPVTLDLPPPADTQQKPVLPGPSAVVVTRPSRASLRRAASGPRSMRPVASGNWQSTLNSIVGLGVQSLKRRRCF
notes: range 1-250; also called Cy3B-pVI; adenovirus precursor protein pVI
With B1, the Kd turned out to be 55 nM at dsDNA [1] (12-mer dsDNA, 0.02 M NaCl, read-out: KD); 155 nM at dsDNA [1] (12-mer dsDNA, 0.03 M NaCl, read-out: KD); 328 nM on dsDNA [1] (12-mer dsDNA, 0.04 M NaCl, read-out: KD); 449 nM at dsDNA [1] (12-mer dsDNA, 0.05 M NaCl, read-out: KD); 1040 nM at dsDNA [1] (12-mer dsDNA, 0.06 M NaCl, read-out: KD); 35 nM at dsDNA [1] (33-mer dsDNA, 1 mM MgCl2, buffer B pH 8, 21° C., read-out: KD(app.)). Also, the Kd with Ad2 hexon [5] was 1.9 nM and 1.85 nM; in the data set with Ad2 hexon [8] it was 1.8 nM. In addition, in the data set with AVP [6] (77 nM pVI, 130 nM AVP, 320 nM 36-mer dsDNA), the “rate of AVP activation relative to rate at peak DNA concentration (50 nM)” value came out at 12%. The “pVI cleaved and used to form active AVP-pVIc complexes” value in the data set with AVP [6] (3.38 μM pVI, 6.54 μM AVP, 3.38 μM 36 bp dsDNA, by one hour) is given as 100%. For the same molecule, the “enzymatic activity after mixing AVP with pVI” value with AVP [6] (no DNA) is reported as “no enzymatic activity was detected”. Besides, the “time by which all pVI had disappeared (SDS-PAGE)” value with AVP [6] (with AVP and 36 bp dsDNA) is on record as at most 10 minutes. Moreover, the “minimum DDM concentration required to remain in solution” value in data set [7] is reported as 0.0125%. Further, the one-dimensional diffusion constant with lambda DNA was 1.45×10^6. For the same molecule, the “one-dimensional diffusion constant (mean)” value with lambda DNA (flow-stretched lambda DNA, low salt) was 1.45±0.13×10^6 (bp)^2/s and 1.45×10^6 (bp)^2/s. Besides, the “stoichiometry of binding of pVI to hexon monomer” value in the data set with Ad2 hexon [9] turned out to be 1 pVI per hexon monomer.
